From the supplement of paper PMC9170038 come the findings set out here.

This data set relates to MS2 coat protein. Description: apparent KD of MS2 coat protein; designed switch direction (-1 OFF switch, 1 ON switch): 1; higher = weaker reporter binding. In outline:
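Transcription of designed RNA switches on Illumina chips was done by stalled E. coli RNA polymerase. SNAP-549-labelled MS2 coat protein was then titrated in doubling steps from 0.7 or 1.5 nM to 3 µM, with steps of 0.8–1.5 h at the lowest and 10–20 min at the highest concentration. The per-design median over clusters of curve-fitted normalised fluorescence is reported as apparent KD.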

Where [1] appears, read: Eterna round: R95, input ligand: FMN 200 uM.
Where [2] appears, read: Eterna round: R95, input ligand: microRNA oligo, concentration not stated.
[3] abbreviates: Eterna round: R95, input ligand: none.
Setting [4] is: input ligand: microRNA oligo, concentration not stated.

On to “AGAUAACAUGAGGAUCACCCAUGUCAACUAAGUCGAGGAUAUGGGCAUAUUAUAUUAGAACCAGAAGGCGAAUAGA [Mat - Same State 1 - Mod of UCT - D45] (puzzle: Same State 1)”, for which the “apparent KD of MS2 coat protein” value by setting is: under setting [1], 12.6 nM; under setting [2], 4.03 nM; under setting [3], 27.9 nM.

As to “AGAUCAUGACGAGGAUAUCCGACAUGAGGAUCACCCAUGUAUGUUGGAGGACGCGUACGUCCAAUGGAGAAGGCGUCGUGGUCA [JL SSNG2 1.04] (Eterna round: R96, puzzle: Same State NG 2)”, the “apparent KD of MS2 coat protein” value is, setting by setting: (input ligand: FMN 200 uM) 13.6 nM; under setting [4], 11.8 nM; (input ligand: none) 14.9 nM.

Turning to “AGAUCAUGACGAGGAUAUGGAACAUGAGGAUCACCCAUGUAUGUUCCAUAACGCGAAUAAAGAAUCCAGAAGGCGUCGUGAUCA [Mat - Same State NG 2 - JL mod - D31] (Eterna round: R96, puzzle: Same State NG 2)”, the “apparent KD of MS2 coat protein” value is, setting by setting: (input ligand: FMN 200 uM) 13.1 nM; under setting [4], 52.5 nM; (input ligand: none) 85.5 nM.

Take “AGAUCAUGACGAGGAUAUGGUACAUGAGGAUCACCCAUGUAUGUAUCAUAACGCGAAUGACGAAUCCAGAAGGCGUCGUGGUCA [JL SSNG2 1.12] (Eterna round: R96, puzzle: Same State NG 2)”: the “apparent KD of MS2 coat protein” value stood at 9.94 nM (input ligand: FMN 200 uM), 14.7 nM under setting [4] and 22.7 nM (input ligand: none).

For the sequence “AGAUGUUAAUCAGGAUAUGGGCACAUGAGGAUCACCCAUGUAAAGUAGAUACUAUGUGGUCAAGUCUAGAAGGGAUGGCUAACA [SameState NG2 #80] (Eterna round: R96, puzzle: Same State NG 2)”, the “apparent KD of MS2 coat protein” value is, setting by setting: (input ligand: FMN 200 uM) 433 nM; under setting [4], 282 nM; (input ligand: none) 279 nM.

As for “AGAUGUUAAUCAGGAUAUGGGCACAUGAGGAUCACCCAUGUAAAUUCGAUACUAUGUGGAGACGUCUAGAAGGGAUGGCUAACA [SameState NG2 #84] (Eterna round: R96, puzzle: Same State NG 2)”, the “apparent KD of MS2 coat protein” value (input ligand: FMN 200 uM) turned out to be 127 nM, the “apparent KD of MS2 coat protein” value under setting [4] came to 82.2 nM and the “apparent KD of MS2 coat protein” value (input ligand: none) was found to be 137 nM.

Take “AGAUGUUAAUCAGGAUAUGGGCACAUGAGGAUCACCCAUGUAAUUUCGAUACUAUGUGGAGACGUCUAGAAGGGAUGGCUAACA [SameState NG2 #85] (Eterna round: R96, puzzle: Same State NG 2)”: the “apparent KD of MS2 coat protein” value was determined as 162 nM (input ligand: FMN 200 uM), 101 nM under setting [4] and 134 nM (input ligand: none).

Turning to “AGCACGAUUCGAGGAUAUGAGUCACAUGAGGAUCACCCAUGUCUAAUGGAUGGGACGGCCCAACCUCAGAAGGCGAUACCGGCA [Eternabot solution 24] (Eterna round: R96, puzzle: Same State NG 2)”, the “apparent KD of MS2 coat protein” value reads like this: (input ligand: FMN 200 uM) 392 nM; under setting [4], 307 nM; (input ligand: none) 338 nM.

With “AGCCGAAGCGCAGGAUAUACAUGGAUACAUGAGGAUCACCCAUGUAGCAACACGUGGUAGUGAUUGUAGAAGGGUGCUCGGCGC [Omei SS(NG)2 Cv17] (Eterna round: R96, puzzle: Same State NG 2)”, the “apparent KD of MS2 coat protein” value is, setting by setting: (input ligand: FMN 200 uM) 27.4 nM; under setting [4], 35.5 nM; (input ligand: none) 54.6 nM.

As to “AGCCGAGACUGAGGAUAUAGAAAUCUACAUGAGGAUCACCCAUGUAGCAACACGUGGUAGUGAUUCUAGAAGGCGGCUCGGCGC [Omei SS(NG)2 Cv5] (Eterna round: R96, puzzle: Same State NG 2)”, the “apparent KD of MS2 coat protein” value by setting is: (input ligand: FMN 200 uM) 13.4 nM; under setting [4], 41.1 nM; (input ligand: none) 40.6 nM.

As for “AGCCGAGACUGAGGAUAUAGAUAUCUACAUGAGGAUCACCCAUGUAGCAACACGUGGUAGUGAUUCUAGAAGGCGGCUCGGCGC [Omei SS(NG)2 Cv6] (Eterna round: R96, puzzle: Same State NG 2)”, the “apparent KD of MS2 coat protein” value was 19.2 nM (input ligand: FMN 200 uM), 66.2 nM under setting [4] and 83.7 nM (input ligand: none).

On to “AGCCUGAGUCGAGGAUAUUAUGGAUCCUUUAAUACAUGAGGAUCACCCAUGUAAUUAAUUAUACAUGAGAAGGUGACUCAGGCA [SSNG2/11-B1] (Eterna round: R96, puzzle: Same State NG 2)”, for which the “apparent KD of MS2 coat protein” value under setting [4] is 186 nM.

For “AGCCUGGAAGUCCAGGCAAAACAUGAGGAUCACCCAUGUACAUAGGAUAUCGUCUGAAAAGCAGACGAGAAGGGUGACCGAACU [Titedi] (Eterna round: R96, puzzle: Same State NG 3)”, the “apparent KD of MS2 coat protein” value turned out to be 687 nM (input ligand: FMN 200 uM), 96.8 nM under setting [4] and 192 nM (input ligand: none).

As for “AGCGAGAUAGGCAAGGAUAUGCUGAGGUGCACAUGAGGAUCACCCAUGUCAGUGGCGAAAGCGAAGCAGAAGGUGCAUUCUCUUU [ak fifth] (puzzle: Same State 2)”, the “apparent KD of MS2 coat protein” value by setting is: under setting [1], 27.1 nM; under setting [2], 190 nM; under setting [3], 332 nM.

On to “AGCGAGAUAGGCGAGGAUAUGCUUUUUUGCACAUGAGGAUCACCCAUGUCUUUGUUUUUUGUUUUGCAGAAGGCGCAUUCUCUUU [ak unbound state multiloop] (Eterna round: R96, puzzle: Same State 2)”, for which the “apparent KD of MS2 coat protein” value is, setting by setting: (input ligand: FMN 200 uM) 46.1 nM; under setting [4], 15.8 nM; (input ligand: none) 26.1 nM.

Consider “AGCGAGAUAGGCGAGGAUAUGCUUUUUUGCACAUGAGGAUCACCCAUGUCUUUGUUUUUUGUUUUGCAGAAGGCGCAUUCUCUUU [ak unbound state multiloop] (puzzle: Same State 2)”, for which the “apparent KD of MS2 coat protein” value worked out at 32.7 nM under setting [1], 14.3 nM under setting [2] and 12.7 nM under setting [3].

For the sequence “AGCUAAAACGAAGGAUAUACAGACAUGAGGAUCACCCAUGUAUACAUGAUUUAUUGUGAUCACAUGUAGAAGGUCGUACUAACA [SameState NG2 #20] (Eterna round: R96, puzzle: Same State NG 2)”, the “apparent KD of MS2 coat protein” value (input ligand: FMN 200 uM) was 190 nM, the “apparent KD of MS2 coat protein” value under setting [4] stood at 649 nM and the “apparent KD of MS2 coat protein” value (input ligand: none) came to 681 nM.

For “AGCUAAAACGAAGGAUAUACUGACAUGAGGAUCACCCAUGUAUACAUGAUUUAUUGUGAUCACAUGUAGAAGGUCGUACUAACA [SameState NG2 #21] (Eterna round: R96, puzzle: Same State NG 2)”, the “apparent KD of MS2 coat protein” value reads like this: (input ligand: FMN 200 uM) 310 nM; under setting [4], 269 nM; (input ligand: none) 413 nM.

As to “AGCUAGUACCGAGGAUAUACAUACAUGAGGAUCACCCAUGUAUACAUGAAUUAUUGAGACUACAUGUAGAAGGCGGUACUAGCA [JL SSNG2 1.20] (Eterna round: R96, puzzle: Same State NG 2)”, the “apparent KD of MS2 coat protein” value is, setting by setting: (input ligand: FMN 200 uM) 16.6 nM; under setting [4], 35.7 nM; (input ligand: none) 64.9 nM.

For the sequence “AGCUAGUACCGAGGAUAUACGUACAUGAGGAUCACCCAUGUAUACAUGAAUUAAUGAGACUACAUGUAGAAGGCGGUACUAGCA [Mat - Same State NG 2 - JL mod - D49] (Eterna round: R96, puzzle: Same State NG 2)”, under setting [4], the “apparent KD of MS2 coat protein” value came out at 34.3 nM.

On to “AGCUAUCGAAAACGAUAGCAAAAGCAUGUACAUGAGGAUCACCCAUGUUAUGUACAAGCUUUUUGCUCGUCUUAAAA [Zipper 23 - 11] (puzzle: Sensor for hsa-mir-208a)”, for which the “apparent KD of MS2 coat protein” value runs as follows: under setting [1], 326 nM; under setting [2], 12 nM; under setting [3], 308 nM.

On to “AGCUAUCGAAAACGAUAGCAGAAGCAUGUACAUGAGGAUCACCCAUGUCAUGUACAAGCUUUUUGCUCGUCUUAAAA [Zipper 23 - 1] (puzzle: Sensor for hsa-mir-208a)”, for which the “apparent KD of MS2 coat protein” value came out at 360 nM under setting [1], 17.8 nM under setting [2] and 703 nM under setting [3].

“AGCUAUCGAAAACGAUAGCAUAAGCUUGGACAUGAGGAUCACCCAUGUCAUGUACAAGCUUUUUGCUCGUCUUAAAA [JL zipper 29] (Eterna round: R96, puzzle: Sensor for hsa-mir-208a)”: the “apparent KD of MS2 coat protein” value is, setting by setting: (input ligand: FMN 200 uM) 32.3 nM; under setting [4], 11.9 nM; (input ligand: none) 34.5 nM.

Consider “AGCUAUUAAUCAGGAUAUAGGGACAUGAGGAUCACCCAUGUAUAAAUGAUGAAAUGUGGUCACCUCUAGAAGGGAUUACUAACA [SameState NG2 #43] (Eterna round: R96, puzzle: Same State NG 2)”, for which the “apparent KD of MS2 coat protein” value by setting is: (input ligand: FMN 200 uM) 42.7 nM; under setting [4], 29 nM; (input ligand: none) 40.4 nM.

With “AGCUAUUAAUCAGGAUAUGGUGACAUGAGGAUCACCCAUGUAUAGAUGAUUAAAUGUGGUCUAUACCAGAAGGGAUUACUAACA [SameState NG2 #52] (Eterna round: R96, puzzle: Same State NG 2)”, the “apparent KD of MS2 coat protein” value runs as follows: (input ligand: FMN 200 uM) 55.5 nM; under setting [4], 247 nM; (input ligand: none) 356 nM.

In the case of “AGCUAUUACGAAGGAUAUUGUGACAUGAGGAUCACCCAUGUCUUCAUGAUUUAUUGUGAUCACGUCGAGAAGGUUGUACUAACA [SameState NG2 #28] (Eterna round: R96, puzzle: Same State NG 2)”, the “apparent KD of MS2 coat protein” value amounted to 50.5 nM (input ligand: FMN 200 uM), 56.3 nM under setting [4] and 57.6 nM (input ligand: none).

As for “AGCUAUUACGAAGGAUAUUGUGACAUGAGGAUCACCCAUGUUUGCAUGAUUAAUUGUGAUCACGUCGAGAAGGUUGUACUAACA [SameState NG2 #31] (Eterna round: R96, puzzle: Same State NG 2)”, the “apparent KD of MS2 coat protein” value (input ligand: FMN 200 uM) came to 26.2 nM, the “apparent KD of MS2 coat protein” value under setting [4] is 20.9 nM and the “apparent KD of MS2 coat protein” value (input ligand: none) came to 29.5 nM.
